Test results reported in PMC4092016, “Molecular Characterization of the Na^+/H^+-Antiporter NhaA from Salmonella Typhimurium” (PLoS ONE, 2014).

Target: the molecule itself
Test: SEC-MALS; SEC-MALLS with refractive index and UV280 monitoring; two coupled Superdex 200 5/15 columns; 10 mM MES pH 6, 150 mM NaCl, 0.03% β-DDM; 80 µg IMAC-purified STNhaA; protein conjugate analysis separating protein and detergent mass

B1: Na+/H+ antiporter NhaA from Salmonella enterica serovar Typhimurium LT2, recombinant with carboxy-terminal hexahistidine tag (natural protein)
chain: NLGILKHLHRFFSSDASGGIILIIAAALAMLMANMGATSGWYHDFLETPVQLRVGALEINKNMLLWINDALMAVFFLLIGLEVKRELMQGSLASLRQAAFPVIAAIGGMIVPALLYLAFNYSDPVTREGWAIPAATDIAFALGVLALLGSRVPLALKIFLMALAIIDDLGAIVIIALFYTSDLSIVSLGVAAFAIAVLALLNLCGVRRTGVYILVGAVLWTAVLKSGVHATLAGVIVGFFIPLKEKHGRSPAKRLEHVLHPWVAYLILPLFAFANAGVSLQGVTIDGLTSMLPLGIIAGLLIGKPLGISLFCWLALRFKLAHLPQGTTYQQIMAVGILCGIGFTMSIFIASLAFGNVDPELINWAKLGILIGSLLSAVVGYSWLRARLNAPA
notes: five residues that the expression construct adds at the amino-terminus; Na+/H+ antiporter NhaA, S. Typhimurium LT2, wild type; coding region (nhaA, STM0039) amplified from genomic DNA; calculated mass of the construct 44.01 kDa; Integral membrane protein, held in β-DDM detergent; also called STNhaA; STNhaA-His6; source: E. coli NM554 (pTTQ18A1-STNhaA-His6), membranes solubilized in β-DDM, …
stoichiometry N: 2
